Laboratory results as given in US20160040155A1, “ACTIVATING AN ALTERNATIVE PATHWAY FOR HOMOLOGY-DIRECTED REPAIR TO STIMULATE TARGETED GENE CORRECTION AND GENOME ENGINEERING” (UNIVERSITY OF WASHINGTON THROUGH ITS CENTER FOR …, priority 2013, published 2016).
“Also recorded” adds a separate entry of the source.

B1: RAD51K133R: dominant negative RAD51 mutant which does not hydrolyze ATP, transiently expressed from pCMV-RAD51K133R-T2A-IFP-1.4 (protein, UniProt Q06609 2-339, looked up, variant K133R)
DNA repair protein RAD51 …: AMQMQLEANADTSVEEESFGPQPISRLEQCGINANDVKKLEEAGFHTVEAVAYAPKKELINIKGISEAKADKILAEAAKLVPMGFTTATEFHQRRSEIIQITTGSKELDKLLQGGIETGSITEMFGEFRTGRTQICHTLAVTCQLPIDRGGGEGKAMYIDTEGTFRPERLLAVAERYGLSGSDVLDNVAYARAFNTDHQTQLLYQASAMMVESRYALLIVDSATALYRTDYSGRGELSARQMHLARFLRMLLRLADEFGVAVVITNQVVAQVDGAAMFAADPKKPIGGNIIAHASTTRLYLRKGRGETRICKIYDSPCLPEAEAMFAINADGVGDAKD
modifications: T2A-IFP1.4 coexpression

Experiments:
Assay type in all cases: cell-based, human
Flp-In T-REx-293 cells = assay: Tetracycline-inducible P-Tet TL reporter HDR and mutEJ assay with or without doxycycline
Description: To ask if active transcription was required for the transcribed strand bias in HDR at nicks, derivatives of the TLTP and TLNT reporters were created in which a tetracycline-inducible (P-Tet) was substituted for the constitutive SFFV promoter upstream of GFP. TheseP-Tet TLTP and P-Tet TLNT reporters were stably integrated at the unique FRT site in Flp-In™ T-REx™-293 cells. Cells were cultured with (ON) or without (OFF) 1 μg/ml doxycycline, transfected with an I-AniI expression construct and the pCS14GFP plasmid dsDNA donor, and after 8-9 days of culture, doxycycline was added to the OFF cells to permit detection of HDR (GFP+) and mutEJ (mCherry+) events that had occurred in the absence of transcription. Active transcription increased the frequency of HDR at a transcribed-strand nick 2.5-fold, but reduced the frequency of HDR at a non-transcribed strand nick 4-fold (FIG. 9C). These opposing effects together accounted for the 8-fold greater frequency of HDR at a transcribed strand nick in a transcribed gene (FIG. 9B). […] Without wishing to be bound by theory, the transcription-associated strand bias of HDR at nicks may reflect unwinding ahead of the transcription apparatus that exposes the recombinogenic 3′ end of a transcribed strand nick that stimulates HDR, while occlusion of the 3′ end and exposure of the less recombinogenic 5′ end of a non-transcribed strand nick may hinder HDR (FIG. 9D). Similarly, the 2-fold reduction in mutEJ observed at DSBs, but not at nicks (FIG. 17B), may be caused by occlusion of the DSB by factors associated with the transcription apparatus.
(§1) Cell culture and transfection. […]
Flow cytometry. Cells were fixed in 2% formaldehyde and analyzed on an LSR II™ flow cytometer (Becton Dickinson, Franklin Lakes, N.J.). […]

293T-TL7TP line = assay: TL reporter mutagenic end joining (mCherry+) flow assay, I-AniI, 293T-TL7TP line; conditions: mCherry+ cells, nicks or DSBs
Excerpt: Damage associated with gene targeting must be minimized for these applications. While the sequence-specificity of I-AniI limits its application to genome engineering, it is useful as a model in this context, as it cuts DNA to generate 5′-phosphate and 3′-hydroxyl ends like the FokI cleavage domain^13 of zinc finger or TALE nucleases suited for genome engineering applications. The TL reporter was used to quantify mutagenic end joining (EJ) accompanied by +2 frameshift that allows the mCherry gene to be translated (FIG. 1B). In the 293T-TL7TP line, the frequency of nick-initiated mutagenic EJ was nearly two orders of magnitude lower than that of DSB-initiated mutagenic EJ, regardless of donor (FIG. 3E). RAD51K133R expression increased the frequency of mutagenic EJ, but the frequency of nick-initiated mutagenic EJ remained lower than that of DSB-initiated mutagenic EJ (FIG. 3E). […]
Flow cytometry data were analyzed using FlowJo™ (Tree Star, Ashland, Oreg.) flow cytometry analysis software and frequencies were transferred to Microsoft Excel™ in which statistical significance was determined by two-tailed t-test. […]
(§2) Flow cytometry. Cells were fixed in 2% formaldehyde and analyzed on an LSR II™ flow cytometer (Becton Dickinson, Franklin Lakes, N.J.). […] GFP, mCherry, and mTagBFP fluorescence were detected with 488 nm, 561 nm 406 nm and 641 nm lasers, respectively. […]

HT1080-TL4TP clonal line = assay: TL reporter HDR (GFP+) flow assay, I-AniI nickase or cleavase, HT1080-TL4TP clonal line; conditions: I-AniI nick, ssDNA donors
Description: (§3) Flow cytometry data were analyzed using FlowJo™ (Tree Star, Ashland, Oreg.) flow cytometry analysis software and frequencies were transferred to Microsoft Excel™ in which statistical significance was determined by two-tailed t-test. In all experiments I-AniI was co-expressed with mTagBFP (BFP) and GFP+ and mCherry+ frequencies among BFP+ cells are shown.
ssDNA molecules can serve as donors for HDR at DSBs (22-24). It was asked if they can also serve as donors for HDR at nicks using 99 nt ssDNA oligonucleotides in which a central 17 nt heterologous region corrects the mutations in the defective target gene (FIG. 10A). […] No donor strand bias was evident at DSBs.
Flow cytometry, HDR and mutEJ frequencies. Cells were processed for flow cytometry as described previously (13). In experiments with I-AniI, which was co-expressed with mTagBFP (BFP), data are presented as GFP+ and mCherry+ frequencies among BFP+ cells, except in cases where flow was carried out more than 8 days post-transfection, by which time the BFP signal was largely extinguished.
as §1, §2

293T-TL7TP cells = assay: Traffic Light (TL) reporter HDR (GFP+) flow assay, I-AniI nickase or cleavase, 293T-TL7TP clonal line; conditions: I-AniI nick, 99 nt ssDNA donors
Excerpt: Damage to the transcribed DNA strand is preferentially detected and repaired in transcription-coupled nucleotide excision repair^7, and transcribedstrand nicks can arrest transcriptional elongation in human cell extracts^8. […] Chromosomal repair targets were derived from the TL reporter^9. TLTP and […] reporters carry an I-AniI site oriented for nicking the transcribed or non-transcribed strand, respectively (FIGS. 1A and 5A-5E). HDR that replaces the I-AniI site and nonsense codons yields GFP+ cells (FIGS. 1B and 5A-5E). […] GFP+ cells among I-AniI-expressing (BFP+) cells were quantified 3 days later.
as §3
Damage to the transcribed strand is preferentially detected and repaired in transcription-coupled nucleotide excision repair (16), and transcribed strand nicks can arrest transcriptional elongation in human cell extracts (17). […]

[1] = tested on: 293T-TLTP and 293T-TLNT cell populations; assay: TL reporter HDR (GFP+) assay in 293T-TLTP and 293T-TLNT cell populations, I-AniI; conditions: I-AniI nickase
Excerpt: Populations of 293T cells bearing either the TLTP or TLNT reporter at heterogeneous integration sites were transiently transfected with a construct co-expressing I-AniI and the blue fluorescent protein mTagBFP (BFP), and with the dsDNA plasmid donor pCS14GFP. This donor is homologous with the TLTP and TLNT reporters over a region extending 2.47 kb upstream and 0.56 kb downstream of the I-AniI site (FIG. 15A-15C). GFP+ cells among I-AniI-expressing (BFP+) cells were quantified at 3 days post-transfection. […] Nicks initiated HDR with nearly 8-fold greater frequency in the TLTP than in the TLNT population.
To learn what determines ssDNA donor strand bias, HDR by ssDNA donors complementary to the intact (cI) or nicked (cN) strand at transcribed and non-transcribed strand nicks in the TLTP and TLNT populations was compared. The TLTP and TLNT populations carry reporters delivered by lentiviruses and integrated at heterogeneous chromosomal positions, to minimize possible effects of replication direction on this assay.
To determine whether there is a predominant directionality to unwinding or resection, a comparison was made of HDR at nicks by ssDNA donors identical in length (75 nt) and centered on the nick or extending either 3′ or 5′ of the nick. […]

[2] = ON vs OFF, 1 μg/ml doxycycline, pCS14GFP dsDNA donor

Row | Molecule | reduction in mutEJ at DSBs (Flp-In T-REx-293 cells; ON vs OFF doxycycline, FIG. 17B, not at nicks) [fold] | increase of the frequency of HDR at a transcribed-strand nick (Flp-In T-REx-293 cells; [2]) [fold] | reduction of the frequency of HDR at a non-transcribed strand nick (Flp-In T-REx-293 cells; [2]) [fold] | frequency of mutagenic EJ (293T-TL7TP line) | frequency of HDR at nicks by ssDNA donor (HT1080-TL4TP clonal line) | frequency of HDR at nicks by ssDNA donor (293T-TL7TP cells) | effect on HDR at nicks in the transcribed or non-transcribed strand [1]
1 | C[C@H]1c2cccc(O)c2C(=O)C2=C(O)[C@]3(O)C(=O)C(C(N)=O)=C(O)[C@@H](N(C)C)[C@@H]3[C@@H](O)[C@@H]21 [doxycycline] | 2 | 2.5 | 4 |  |  |  | 
2 | B1 |  |  |  | increased | stimulating | stimulating | Stimulation was evident; also recorded: comparable effects
